# Reference: patent US20110229478A1, “ERBB3 BASED METHODS AND COMPOSITIONS FOR TREATING NEOPLASMS” (ZENSUN (SHANGHAI) SCIENCE & TECHNOLOGY LIMITED, priority 2002, published 2011)
# Several values for one entry are separate records, joined by “and”; a condition that tells them apart may be missing. Equal entries are not always repeated.
# B1: DE3-1: extra-cell membrane ErbB3 protein segment (SEQ ID NO:3) expressed by E. coli, N end fused with Trx Tag, His Tag and S-Tag (protein, listed as Homo sapiens)
# chain: MRANDALQVLGLLFSLARGSEVGNSQAVCPGTLNGLSVTGDAENQYQTLYKLYERCEVVMGNLEIVLTGHNADLSFLQWIREVTGYVLVAMNEFSTLPLPNLRVVRGTQVYDGKFAIFVMLNYNTNSSHALRQLRLTQLTEILSGGVYIEKNDKLCHMDTIDWRDIVRDRDAEIVVKDNGRSCPPCHEVC
# modifications: N-terminal Trx, His, S tags
# B2: rhErbB3-f12: protein segment of ErbB3 extra-cell membrane region (SEQ ID NO:14) expressed by E. coli (protein, listed as Homo sapiens)
# chain: MKYLLPTAAAGLLLLAAQPAMAMDIKHNRPRRDCVAEGKVCDPLCSSGGCWGPGPGQCLSCRNYSRGGVCVTHCNFLNGEPLEHHHHHH
# B3: rhErbB3-f78: ErbB3 extra-cell membrane protein segment (SEQ ID NO:16) expressed by E. coli (protein, listed as Homo sapiens)
# chain: MVCVASCPHNFVVDQTSCVRACPPDKMEVDKNGLKMCEPCGGLCPKACEGTGSGSRFQTVDSSNIDGFVNCTKILGNLDFLITGLNGDPWHKIPALDPEKLNVFRTVREITGYLNIQSWPPHMHNFSVFSNLTTIGGRSKLAAALEHHHHHH
# Legend:
# [1] = tested on: tumor development in FVB/N transgenic mice (neu protein over-expression, spontaneous breast cancer); assay: Preventive effect of B3, DE3-1 on tumor development; type: in vivo; conditions: for Incidence of tumor growth / Time of tumor occurrence: injected abdominally every 20 days, 7 injections, 40 mice; for Tumor-inhibitory effect against the development of tumor, incidence versus negative control group: ×2 testing versus BSA + CFA control
# Experimental: 8-10 weeks old FVB/N transgenic mice (bought from Jackson Lab USA) was selected as experiment animals, the mice were divided into 5 groups with 40 mice each, they were control group, B2, B3 and DE3-1 group; BSA, B2, SD32, B3, DE3-1 was mixed with Freud's adjuvant (CFA, complete Freud's adjuvant, bought from Sigma company) and injected abdominally every 20 days for 7 injections respectively to various groups. The dosage of BSA, B2, SD32, B3 and DE3-1 vaccine was 10, 5, 10, 1 and 10 μg/mouse/injection. Weekly monitor tumour development. The tumour development was verified and analysed statistically.
# Objective of the present experiment is to explore whether there is preventive effect of B3 or DE3-1 vaccine on tumor development. The reason to choose this type of transgenic mice as experiment animal model, is because rat wild type neu cDNA controlled by mice breast virus promotor was transferred into the body of mice and produce over-expression of neu protein and spontaneous breast cancer occurred within 5-8 months in half of the mice. Natural course of tumor in the transgenic mice and its pathologic pattern is similar to that of human breast cancer. Therefore, it may have better therapeutic effect when used clinically. The sample contains 40 animals in each group, the aim of selecting such large sample is to ensure the number of cases which have the disorders will be greater than 10 animals, thus will be of greater implication statistically. The selection of dosage is based on the results of pre-experiments.
# [2] = tested on: transplanted tumour from spontaneous tumour of neu protein over-expressed FVB/N transgenic mice; assay: Therapeutic effect of B3 vaccine in transplanted tumour model (Table 2); type: in vivo
# Experimental: (§1) Transplanted tumour model, after immunohistological screening test, about 1000 mm^3 tumour mass was cut down from spontaneous tumour of neu protein over-expressed FVB/N transgenic mice. The tumour mass was abraded into single cells with nylon net, the amount injected under the breast of each FVB/N transgenic mice was 5×10^6 cells.
# Nothing was administrated in the control group; 24 hours after the inoculation, SD32 and B3 vaccine injection started in SD32 and B3 experiment groups, the aforementioned vaccines were absorbed on 0.1 mg/ml of Al(OH)3 respectively, and injected multi-pointedly every 2 weeks for a total of three injections; the experiment was completed in 14 days after the third injection. Morbidity was monitored weekly, tumor size was measured weekly with vernier. Volume (length diameter×short diameter 2/2) of the tumor was used to represent their size, and curve of tumor growth was protracted,
# Tumor weight was measured after completion of the experiment and tumor-inhibitory rate was calculated, inhibitory rate=[(tumor weight of control group−tumor weight of experiment groups)/tumor weight of control group]×100.
# B2 and B3 antigen = assay: Cross immunity of B2 and B3 antigen (ELISA antibody titer); conditions: serum of immunized FVB transgenic mice, ELISA on wrapped B2 or B3 protein, 450 nm
# Experimental: FVB transgenic mice were immuned with B2 protein and B3 protein respectively, 10 days thereafter, blood was withdrawn and antibody titer was tested with ELISA. 0.3 μg/hole of B2 and B3 was wrapped, 1:1000 B2 and B3 on each plate were titrated with standard serum respectively, cultured at 37° C. for 30 minutes, sealed with 1% BSA, added double antibody, color development for 15 minutes with DAD, tested with Bio-Rad 450 nm enzyme labeled device.
# [3] = tested on: transplanted tumour from spontaneous tumour of neu protein over-expressed FVB/N transgenic mice; assay: Anti-tumor effect of rhErbB3-f12 (Table 4); type: in vivo
# Source text: as §1
# (§2) Experiment on the therapeutic effect of various dosage of DE3-1 rhErbB3412 and rhErbB3-f78 on immune therapy against tumor.
# (§3) Preparing animal and transplanted animal tumor model: The same as (Experiment on therapeutic effect of B3 and DE3-1 rhErbB3-f12 and rhErbB3-f78 vaccine on immune therapy against tumor). No treatment was given to the control group, histag protein was injected to the negative control group, and Adriamycin (Santou MingZhi Pharmaceuticals) was administered for the positive control group, 5 μg, 20 μg and 80 μg was given to DE3-1 group respectively.
# (§4) Tumor weight was measured after completion of the experiment and tumor-inhibitory rate was calculated, tumor inhibitory rate=[(tumor weight of control group−tumor weight of experiment groups)/tumor weight of control group]×100.
# [4] = tested on: transplanted tumour from spontaneous tumour of neu protein over-expressed FVB/N transgenic mice; assay: Therapeutic effect of various dosage of DE3-1 in transplanted tumour model (Table 3); type: in vivo
# Source text: as §1, §3
# One day after the inoculation, Adriamycin 2.2 mg/kg was injected abdominally for consecutive 7 days in mice of the positive control group; histag protein+Al(OH)^3 was injected abdominally for mice of the negative control group; In DE3-1 group, the vaccine was absorbed on 0.1 mg of Al(OH)^3 and multi-points subcutaneous injection every 2 weeks for a total of 3 injections were carried out in mice. The experiment completed in 14 days after the third injection. Tumor development was monitored weekly, tumor size was measured with vernier and the size was expressed as (length diameter×short diameter 2/2), curve of tumor growth was protracted and analyzed statistically.
# as §4
# [5] = tested on: transplanted tumour from spontaneous tumour of neu protein over-expressed FVB/N transgenic mice; assay: Anti-tumor effect of rhErbB3-f78 (Table 5); type: in vivo
# Source text: as §1, §2, §3, §4
# [6] = ADR 2.2 mg/kg injected abdominally for consecutive 7 days
# [7] = 5 μg + Al(OH)3, subcutaneous every 2 weeks, 3 injections
# [8] = 20 μg + Al(OH)3, subcutaneous every 2 weeks, 3 injections
# [9] = 80 μg + Al(OH)3, subcutaneous every 2 weeks, 3 injections
molecule,measurement,setting,value
"B3: protein of ErbB3 extra-cell membrane region (SEQ ID NO:2), flag-tagged, expressed by eucaryotic cells; anti-tumor vaccine",Incidence of tumor growth,[1]; 5 μg/animal/dose + CFA,12.5%
same,Time of tumor occurrence,[1]; 5 μg/animal/dose + CFA,22 weeks and 20 weeks
same,"Tumor-inhibitory effect against the development of tumor, incidence versus negative control group",[1],significant tumor-inhibitory effect
same,Tumor-inhibitory effect (significance),"[2]; t testing, P<0.01",significant tumor-inhibitory effect
same,Inhibitory rate,"[2]; vaccine + Al(OH)3, every 2 weeks, three injections",33%
same,Tumor size,"[2]; vaccine + Al(OH)3, every 2 weeks, three injections, 5 weeks",5271.8 ± 658.9 mm3
same,Tumor weight,"[2]; vaccine + Al(OH)3, every 2 weeks, three injections, at completion of experiment",3.13 ± 0.33 g
same,Cross immunity between B2 and B3 antigen,B2 and B3 antigen,there isn't any cross immunity
"CC(=O)O[C@H]1C(=O)[C@@]2(C)[C@H]([C@H](OC(=O)c3ccccc3)[C@]3(O)C[C@H](OC(=O)[C@H](O)[C@@H](NC(=O)c4ccccc4)c4ccccc4)C(C)=C1C3(C)C)[C@]1(OC(C)=O)CO[C@@H]1C[C@@H]2O [Taxol, reference compound]",Inhibitory rate,"[3]; 10 mg/kg, ip X 7 qd",44.32%
same,Tumor weight,"[3]; 10 mg/kg, ip X 7 qd",3.09 ± 1.08 g
"COc1cccc2c1C(=O)c1c(O)c3c(c(O)c1C2=O)C[C@@](O)(C(=O)CO)C[C@@H]3O[C@H]1C[C@H](N)[C@H](O)[C@H](C)O1 [ADR, Adriamycin, reference compound]",Inhibitory rate,[4]; [6],25.3%
same,Tumor size,[4]; [6],4603.1 ± 478.3 mm3
same,Tumor weight,[4]; [6],3.564 ± 0.42 g
same,Inhibitory rate,"[5]; 2 mg/kg, ip X 7 qd",40.98%
same,Tumor weight,"[5]; 2 mg/kg, ip X 7 qd",0.648 ± 0.27 g
B1,Incidence of tumor growth,[1]; 10 μg/animal/dose + CFA,35%
same,Time of tumor occurrence,[1]; 10 μg/animal/dose + CFA,23 weeks
same,"Tumor-inhibitory effect against the development of tumor, incidence versus negative control group",[1],not significantly different
same,Inhibitory rate,[4]; [7],22.4%
same,Tumor size,[4]; [7],5563.7 ± 600.6 mm3
same,Tumor weight,[4]; [7],3.687 ± 0.45 g
same,Tumor size,[4]; [8],4715.0 ± 434.8 mm3
same,Tumor weight,[4]; [8],3.455 ± 0.41 g
same,Inhibitory rate,[4]; [9],26.3%
same,Tumor size,[4]; [9],4810.8 ± 460.5 mm3
same,Tumor weight,[4]; [9],3.658 ± 0.37 g
B2,Inhibitory rate,"[3]; 0.25 mg/kg, sc X 3 q14d",58.39%
same,Tumor weight,"[3]; 0.25 mg/kg, sc X 3 q14d",2.31 ± 0.40 g
same,Inhibitory rate,"[3]; 0.5 mg/kg, sc X 3 q14d",52.61%
same,Tumor weight,"[3]; 0.5 mg/kg, sc X 3 q14d",2.62 ± 0.67 g
same,Inhibitory rate,"[3]; 1 mg/kg, sc X 3 q14d",56.76%
same,Tumor weight,"[3]; 1 mg/kg, sc X 3 q14d",2.40 ± 0.49 g
B3,Inhibitory rate,"[5]; 2.5 mg/kg, sc X 3 q14d",60.38%
same,Tumor weight,"[5]; 2.5 mg/kg, sc X 3 q14d",0.435 ± 0.12 g
